Experimental findings from paper PMC3970758, “A conserved MCM single-stranded DNA binding element is essential for replication initiation” are described below.

Data set [1] has as its target Pyrococcus furiosus MCM N-terminal domain (PfMCM 1-256) (Pyrococcus furiosus) (UniProt Q8U3I4). Kind of data set: crystal structure; PfMCMN with 30-mer poly-dT ssDNA; hanging drop, 18°C, 50 mM MES pH 6.0, 10 mM Mg(OAc)2, 28.5% PEG 3350; 3.2 Å; two hexamers in the asymmetric unit.
Data set [2] shares this target. As to the kind of experiment: crystal structure; PfMCMN without DNA; sitting drop, 18°C, 0.2 M sodium malonate pH 7.0, 20% PEG 3350; 2.65 Å; one hexamer in the asymmetric unit.
Data set [3] addresses T1, PfMCMN WT (Pyrococcus furiosus, UniProt Q8U3I4 1-256).
T1 sequence: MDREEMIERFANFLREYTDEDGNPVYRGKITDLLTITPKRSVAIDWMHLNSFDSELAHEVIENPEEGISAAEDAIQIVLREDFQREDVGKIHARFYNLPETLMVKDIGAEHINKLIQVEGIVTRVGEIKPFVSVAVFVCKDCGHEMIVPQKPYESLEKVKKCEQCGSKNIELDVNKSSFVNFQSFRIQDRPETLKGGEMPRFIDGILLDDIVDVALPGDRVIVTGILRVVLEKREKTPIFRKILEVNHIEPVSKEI
Kind of data set: crystal structure (3.2 A); 10 mM Mg(OAc)2 in well solution; Zn-binding subdomain; EMSA: 20 mM HEPES pH 7.6, 200 mM NaCl, 5 mM MgCl2, 5 mM bME, 25 C, 30 min, 160 nM DNA; 4-20% TBE PAGE. The conditions noted are these: protein: recombinant; tags: His6-SUMO removed by Ulp1; in-frame BamHI site may leave extra N-terminal residues. (A gel shift assay detects complexes by their altered migration in electrophoresis.)

Data set [4] has as its target T1, PfMCMN WT. As to the kind of experiment: EMSA; 5 mM Mg2+; EMSA: 20 mM HEPES pH 7.6, 200 mM NaCl, 5 mM MgCl2, 5 mM bME, 25 C, 30 min, 160 nM DNA; 4-20% TBE PAGE. As to conditions: protein: recombinant, tags: His6-SUMO removed by Ulp1, in-frame BamHI site may leave extra N-terminal residues.

A word on the stoichiometry N: it is a count of units in the complex or per binding partner.

As to “Pyrococcus furiosus MCM N-terminal domain (PfMCM 1-256) (from UniProt Q8U3I4 1-256) (domain or fragment)”, the stoichiometry N in data set [1] and in data set [2] was 6 throughout.

B1: poly-dT 30-mer (ssDNA)
DNA: TTTTTTTTTTTTTTTTTTTTTTTTTTTTTT
With B1, the binding result with PfMCMN WT [3] was “binds”.

B2: T40 ssDNA (ssDNA)
DNA: TTTTTTTTTTTTTTTTTTTTTTTTTTTTTTTTTTTTTTTT
As to B2, the “apparent K (half saturation)” value in the data set with PfMCMN WT [4] (label: 5'-fluorescein) was 6.8 µM.

B3: 26-mer dsDNA (dsDNA)
DNA 1: ATGGCAGATCTCAATTGGATATCGGC
DNA 2: GCCGATATCCAATTGAGATCTGCCAT
As to B3, the “apparent K (half saturation)” value in the data set with PfMCMN WT [4] (label: 5'-fluorescein on strand 1, blunt) stood at 7 µM.
